How the values were obtained:
[1] = test system: extracellular wastewater peptidases (pool I extracts from WWTP influents); assay: AMP incubation with active dissolved extracellular wastewater extracts (pool I) from WWTP influents; format: in vitro ADME
Experimental: We took samples from four municipal WWTPs in Austria ([…], and D). […] Where existing, we sampled the following five stages along the wastewater treatment process: influent, primary clarification tank, high-load and low-load aeration tanks, and effluent. […] We took 2 × 500 mL grab samples at each stage using a plastic beaker. We transferred the samples into 500 mL glass bottles leaving roughly one-third of the bottle empty, transported them to the lab, and pooled duplicate samples for further processing. Enzyme extraction started within 1 h after sampling. For total suspended solid (TSS) determination, we filtered 20 mL of each sample through a preweighed, dry GF/F Whatman glass microfiber filter (Sigma-Aldrich, WHA1825047) using a vacuum filtration system, dried the filters at 105 °C for 2 h, and determined the TSS contents from the weight difference. […] Otherwise, the extraction process was the same for pools I and II. All extractions were performed in triplicate, and extracts were kept on ice until further use. […] Triplicate incubations were conducted for the autoclaved and active extracts with spiked AMP. […] This protocol step was conducted according to Luther et al.[9] We then transferred the supernatant into a fresh 1.5 mL protein LoBind Eppendorf tube and dried it in a SpeedVac vacuum concentrator (30 °C for approximately 6 h). […] We transferred the solution into QuanRecovery HPLC vials (Waters, 186009186) and stored the samples at -20 °C until analysis. For method development, selected (and indicated) samples were sonicated (Sonorex Super RK 106, Bandelin, max 480 W) for 5 min at different steps of the sample preparation process. We analyzed AMPs using UHPLC (Thermo Scientific Dionex Ultimate 3000) equipped with a Waters XSelect PREMIER CSH C18 column (article number: 186009870) coupled to HRMS (Thermo QExactive). We injected 10 μL of each sample and applied a flow rate of 0.4 mL/min using the following eluent gradient (A: ultrapure water, B: […] Detection parameters were chosen as follows: […] We used Skyline (version 20.2.0.343) to analyze the raw data. […] For products, the peak area had to either increase throughout the incubation experiment or first increase and then decrease.

[2] = AMP incubation with autoclaved wastewater extracts (abiotic removal / adsorption control); format: physicochemical; conditions: wastewater extracts (pool I influent)
Experimental: We thawed enzyme extracts and transferred 1.35 mL to 2 mL protein LoBind Eppendorf tubes. For autoclaved controls, extract aliquots of 1.5 mL were autoclaved for 20 min at 121 °C and 2 bar (Wolf Sanoclav LaS-MCS-J) and 1.35 mL of the autoclaved extracts were transferred into 2 mL protein LoBind Eppendorf tubes. We then spiked 150 μL of the AMP stock solution containing all AMPs at 10 μg/mL to the enzyme extracts or 1.35 mL of ultrapure water. […] Triplicate incubations were conducted for the autoclaved and active extracts with spiked AMP. After AMP spiking, we mixed the solutions by inverting the vials and incubating them at 20 °C under horizontal shaking at 300 rpm. […]
We analyzed AMPs using UHPLC (Thermo Scientific Dionex Ultimate 3000) equipped with a Waters XSelect PREMIER CSH C18 column (article number: 186009870) coupled to HRMS (Thermo QExactive). […]
In parallel to AMP incubations with active enzyme extracts, we conducted AMP incubations with autoclaved enzyme extracts to control for abiotic removal (e.g., due to adsorption to components in wastewater extracts). Autoclaving decreased the peptidase activity, as measured with the above-mentioned fluorogenic probe-based assay, of wastewater extracts to <3% of their original activity. […] We determined the AMP concentrations in unspiked enzyme extracts, which were below the limit of quantification (LOQ) for all AMPs in all WWTPs.

[3] = test system: extracellular wastewater peptidases (pool I extracts from WWTP influents); assay: Absolute quantification of transformation products (TPs) formed during AMP incubation with wastewater extracts; format: in vitro ADME
Experimental: We thawed enzyme extracts and transferred 1.35 mL to 2 mL protein LoBind Eppendorf tubes. For autoclaved controls, extract aliquots of 1.5 mL were autoclaved for 20 min at 121 °C and 2 bar (Wolf Sanoclav LaS-MCS-J) and 1.35 mL of the autoclaved extracts were transferred into 2 mL protein LoBind Eppendorf tubes. We then spiked 150 μL of the AMP stock solution containing all AMPs at 10 μg/mL to the enzyme extracts or 1.35 mL of ultrapure water. […] Triplicate incubations were conducted for the autoclaved and active extracts with spiked AMP. After AMP spiking, we mixed the solutions by inverting the vials and incubating them at 20 °C under horizontal shaking at 300 rpm. To stop enzymatic reactions at pre-defined sampling time points (i.e., 2 min, 30 min, 1 h, 2 h, and 4 h), we transferred 150 μL of the incubation solution to 450 μL of acetonitrile containing 1% (v/v) formic acid in 1.5 mL protein LoBind Eppendorf tubes, mixed the resulting solution by inverting the tube and by horizontally shaking it at 300 rpm for 2 min at 20 °C, and centrifuged samples at 16,000g for 1 min. This protocol step was conducted according to Luther et al.[9] We then transferred the supernatant into a fresh 1.5 mL protein LoBind Eppendorf tube and dried it in a SpeedVac vacuum concentrator (30 °C for approximately 6 h). To resolubilize AMPs, we added 150 μL of water containing 5% (v/v) acetonitrile and 0.1% (v/v) formic acid, vortexed the samples, and centrifuged them for 10 s at 1000g at room temperature. We transferred the solution into QuanRecovery HPLC vials (Waters, 186009186) and stored the samples at −20 °C until analysis. For method development, selected (and indicated) samples were sonicated (Sonorex Super RK 106, Bandelin, max 480 W) for 5 min at different steps of the sample preparation process.
We analyzed AMPs using UHPLC (Thermo Scientific Dionex Ultimate 3000) equipped with a Waters XSelect PREMIER CSH C18 column (article number: 186009870) coupled to HRMS (Thermo QExactive). […] We used Skyline (version 20.2.0.343) to analyze the raw data. Criteria for parent peptides and hydrolysis product identification were set as described before:[31]m/z deviation <2 ppm, MS/MS fragments with m/z deviation <5 ppm, and reasonable chromatographic peak shape. For products, the peak area had to either increase throughout the incubation experiment or first increase and then decrease.
To learn about the enzymatic hydrolysis pathways of AMPs that we found to be rapidly biotransformed by enzymes in wastewater extracts, we predicted all products of single peptide bond hydrolysis reactions and screened our data-dependent high-resolution mass spectrometry data for experimental evidence in support of the predicted hydrolysis products. These analyses were conducted for the AMPs with the highest biotransformation extents (i.e., >0.5 in at least two WWTPs), namely, cecropin P1, omiganan, and R8. The following requirements for transformation products (TPs) were defined: at least three amino acids, peak area either increases during the incubation experiment or first increases and then decreases, peak area exceeds that in AMP-free enzyme extract by >5-fold and that in spiked autoclaved extracts by >6-fold, and mass deviation <2 ppm from the calculated exact mass. Mass lists, mass deviations, and retention times of all TPs can be found in Tables S6–S11. We further predicted TPs formed via exocleavage mechanisms (i.e., cleavage of one or two terminal amino acids simultaneously from the C- and N- terminus of the peptide) and screened for these TPs in the HRMS data.
For cecropin P1, we performed absolute quantification for TPs II, III, IV, V, VI, and X and found the highest concentrations for TP III. Up to 8.8% of spiked cecropin P1 is converted to TP III during incubations with wastewater extract. For TP II, the conversion ranges from 3.7–5.7%, and for TP V and VI, conversions range between 1.5 and 4.9 and 2.1 and 2.9%, respectively. […]

cecropin P1 (SWLSKTAKKLENSAKKRISEGIAIAIQGGPR; UniProt P14661 14-44, looked up) [AMP from the parasitic nematode Ascaris suum; linear peptide of canonical amino acids]
biotransformation extent (eq 1, from concentrations in active and autoclaved extracts) [1]: > 0.5
removal by biotransformation in active wastewater extracts (in words) [1]: rapidly removed to nonquantifiable concentrations
concentration after 30 min of incubation in active extracts ([1]; pool I influent extracts from all tested WWTPs, 20 °C, HPLC-HRMS): below the LOQ
detectable removal between first sampling time point and 30 min in active extracts ([1]; pool I influent extracts, WWTPs A-D, all AMPs spiked together (150 μL of 10 μg/mL into 1.35 mL extract), 20 °C, 300 rpm, first point 2 min, then 30 min, HPLC-HRMS, triplicate incubations, maximum over WWTPs, limited by LOQ): up to 85%
spiked AMP removed by sorption [2]: up to 70%
share of spiked AMP concentration that could be transformed into the selected TPs, considering the maximum sorption potential of each TP [3]: up to 31.6%
sum of quantified TPs as share of the initially spiked AMP concentration [3]: 22.8%

— article PMC10785756, “Hydrolysis of Antimicrobial Peptides by Extracellular Peptidases in Wastewater” (Environmental Science & Technology, 2023)
